Assay results as given in US20180259527.

T1: recombinant proclotting enzyme of Japanese horseshoe crab (His-tag free)
T1 chain: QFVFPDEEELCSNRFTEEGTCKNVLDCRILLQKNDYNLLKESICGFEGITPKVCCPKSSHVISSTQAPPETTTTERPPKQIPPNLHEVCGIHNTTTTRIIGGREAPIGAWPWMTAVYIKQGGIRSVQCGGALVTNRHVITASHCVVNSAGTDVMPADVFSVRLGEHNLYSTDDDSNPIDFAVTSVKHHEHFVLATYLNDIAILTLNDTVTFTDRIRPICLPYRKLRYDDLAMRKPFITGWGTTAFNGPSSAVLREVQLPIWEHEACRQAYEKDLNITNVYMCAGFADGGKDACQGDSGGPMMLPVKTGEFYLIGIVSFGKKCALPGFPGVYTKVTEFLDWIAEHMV


Molecular target: T1, recombinant proclotting enzyme of …

| Protein | rate of increase in the absorbance at 405 nm (absorbance change rate), proclotting enzyme-activating capacity |
| --- | --- |
| His-tag-attached factor C (factor C of Japanese horseshoe crab of SEQ ID NO:2 with a 6xHis-tag at the C-terminus) (protein) RGVDLGLCDETRFECKCGDPGYVFNVPMKQCTYFYRWRPYCKPCDDLEAKDICPKYKRCQECKAGLDSCVTCPPNKYGTWCSGECQCKNGGICDQRTGACTCRDRYEGAHCEILKGCPLLPSDSQVQEVRNPPDNPQTIDYSCSPGFKLKGVARISCLPNGQWSSFPPKCIRECAKVSSPEHGKVNAPSGNMIEGATLRFSCDSPYYLIGQETLTCQGNGQWSGQIPQCKKLVFCPDLDPVNHAEHQVKIGVEQKYGQFPQGTEVTYTCSGNYFLMGFNTLKCNPDGSWSGSQPSCVKVADREVDCDSKAVDFLDDVGEPVRIHCPAGCSLTAGTVWGTAIYHELSSVCRAAIHAGKLPNSGGAVHVVNNGPYSDFLGSDLNGIKSEELKSLARSFRFDYVSSSTAGRSGCPDGWFEVEENCVYVTSKQRAWERAQGVCTNMAARLAVLDKDLIPSSLTETLRGKGLTTTWIGLHRLDAEKPFVWELMDRSNVVLNDNLTFWASGEPGNETNCVYLDIRDQLQPVWKTKSCFQPSSFACMMDLSDRNKAKCDDPGPLENGHATLHGQSIDGFYAGSSIRYSCEVLHYLSGTETVTCTTNGTWSAPKPRCIKVITCQNPPVPSYGSVEIKPPSRTNSISRVGSPFLRLPRLPLPLARAAKPPPKPRSSQPSTVDLASKVKLPEGHYRVGSRAIYTCESRYYELLGSQGRRCDSNGNWSGRPASCIPVCGRSDSPRSPFIWNGNSTEIGQWPWQAGISRWLADHNMWFLQCGGSLLNEKWIVTAAHCVTYSATAEIIDPSQFKIYLGKYYRDDSRDDDYVQVREALEIHVNPNYDPGNLNFDIALIQLKTPVTLTTRVQPICLPTDITTREHLKEGTLAVVTGWGLNENNTYSEMIQQAVLPVVAASTCEEGYKEADLPLTVTENMFCAGYKKGRYDACSGDSGGPLVFADDSRTERRWVLEGIVSWGSPSGCGKANQYGGFTKVNVFLSWIRQFIHHHHHH | activation of the proclotting enzyme was not observed or hardly observed in the His-tag-attached factor C solution containing the equal amount of factor C (0.7 µL), and even in the solution containing about 7 times the amount of factor C (5 µL) |
| His-tag-free recombinant factor C of Japanese horseshoe crab Tachypleus tridentatus (protein) RGVDLGLCDETRFECKCGDPGYVFNVPMKQCTYFYRWRPYCKPCDDLEAKDICPKYKRCQECKAGLDSCVTCPPNKYGTWCSGECQCKNGGICDQRTGACTCRDRYEGAHCEILKGCPLLPSDSQVQEVRNPPDNPQTIDYSCSPGFKLKGVARISCLPNGQWSSFPPKCIRECAKVSSPEHGKVNAPSGNMIEGATLRFSCDSPYYLIGQETLTCQGNGQWSGQIPQCKKLVFCPDLDPVNHAEHQVKIGVEQKYGQFPQGTEVTYTCSGNYFLMGFNTLKCNPDGSWSGSQPSCVKVADREVDCDSKAVDFLDDVGEPVRIHCPAGCSLTAGTVWGTAIYHELSSVCRAAIHAGKLPNSGGAVHVVNNGPYSDFLGSDLNGIKSEELKSLARSFRFDYVSSSTAGRSGCPDGWFEVEENCVYVTSKQRAWERAQGVCTNMAARLAVLDKDLIPSSLTETLRGKGLTTTWIGLHRLDAEKPFVWELMDRSNVVLNDNLTFWASGEPGNETNCVYLDIRDQLQPVWKTKSCFQPSSFACMMDLSDRNKAKCDDPGPLENGHATLHGQSIDGFYAGSSIRYSCEVLHYLSGTETVTCTTNGTWSAPKPRCIKVITCQNPPVPSYGSVEIKPPSRTNSISRVGSPFLRLPRLPLPLARAAKPPPKPRSSQPSTVDLASKVKLPEGHYRVGSRAIYTCESRYYELLGSQGRRCDSNGNWSGRPASCIPVCGRSDSPRSPFIWNGNSTEIGQWPWQAGISRWLADHNMWFLQCGGSLLNEKWIVTAAHCVTYSATAEIIDPSQFKIYLGKYYRDDSRDDDYVQVREALEIHVNPNYDPGNLNFDIALIQLKTPVTLTTRVQPICLPTDITTREHLKEGTLAVVTGWGLNENNTYSEMIQQAVLPVVAASTCEEGYKEADLPLTVTENMFCAGYKKGRYDACSGDSGGPLVFADDSRTERRWVLEGIVSWGSPSGCGKANQYGGFTKVNVFLSWIRQFI | the His-tag-free factor C showed a remarkable proclotting enzyme-activating capacity irrespective of whether it was obtained by the viral method or by the stably expressing cell line method |
